Results taken from patent US20050124544A1.
Where no end group is shown, it is not given here.

Assays:
[1] = biological target: 2C11 human monoclonal antibody; assay: competition ELISA: 2C11 preincubated with peptide at 200 (µM per paragraph 93), then on immobilised FVIII
[2] = biological target: 2C11 human monoclonal antibody; assay: competition ELISA: 2C11 preincubated with peptide at 0.002 (µM per paragraph 93), then on immobilised FVIII
[3] = biological target: 2C11 human monoclonal antibody; assay: competition ELISA: 2C11 preincubated with peptide at 0.02 (µM per paragraph 93), then on immobilised FVIII
[4] = biological target: 2C11 human monoclonal antibody; assay: cell-based or functional assay
[5] = biological target: 2C11 human monoclonal antibody; assay: competition ELISA: 2C11 preincubated with peptide at 20 (µM per paragraph 93), then on immobilised FVIII
[6] = biological target: 2C11 human monoclonal antibody; assay: competition ELISA: 2C11 preincubated with peptide at 2 (µM per paragraph 93), then on immobilised FVIII

| Binder | % inhibition [1] | % inhibition [2] | % inhibition [3] | Bethesda test: neutralization of the inhibiting activity of 2C11 (3.5 nM), IC50 [4] | Bethesda test: peptide concentration for total neutralization of 2C11 (3.5 nM) [4] | in vivo (FVIII-deficient mice): procoagulant activity of injected FVIII kept with 2C11 (16.7 nM) plus peptide 107 (650 µM) [4] | % inhibition [5] | % inhibition [6] |
| --- | --- | --- | --- | --- | --- | --- | --- | --- |
| Ac-SCHAWSNRRTCR (cysteine pairing not given here) [peptide 107 (…)] | 90.5% | 0% | 0% | 19 µM | 100 µM | 52% | 80% | 37.3% |
| Ac-ECGSHAWGRRCK (cysteine pairing not given here) [peptide 104 (…)] | 63.7% | 0% | 0% |  |  |  | 30.7% | 13.4% |
| Ac-CSKWHNRSKRHC (cysteine pairing not given here) [peptide 105 (…)] | 75.6% | 0% | 0% |  |  |  | 45% | 10.3% |
| Ac-CMKWSNRSSRWC (cysteine pairing not given here) [peptide 106 (…)] | 36.6% | 0% | 0% |  |  |  | 22% | 0% |
| Ac-QCHTWSNRRSCL (cysteine pairing not given here) [peptide 108 (…)] | 60.7% | 0% | 0% |  |  |  | 26% | 15.8% |
| Ac-RCHAWSNRKSCV (cysteine pairing not given here) [peptide 109 (…)] | 75% | 0% | 0% |  |  |  | 37.5% | 12.5% |
| Ac-KCGRWSNRSSCT (cysteine pairing not given here) [peptide 103 (…)] | 62.7% | 0% | 0% |  |  |  | 28.3% | 3.47% |
